Test results: US20200399712A1, “COMPOSITIONS AND METHODS FOR THE DIAGNOSIS AND DETECTION OF TUMORS AND CANCER PROGNOSIS” (priority 2018, published 2020)
Entries after “also recorded” stand apart in the source; their conditions may differ. Marks after values point to notes of the source that are not given here.

Assays:
[1] = tested on: HPV-16 genome; assay: qPCR sensitivity against HPV-16 copy number (known-copy HPV-16 DNA among 10 ng normal human DNA)
Description: (§1) All samples were run in triplicates.
To seek the most promising primer-probe set in the viewpoint of sensitivity, Applicants evaluated the sensitivity analysis for these candidate primer-probe sets. […] Therefore, the sensitivity of E6 (FIG. 3A) and E7 (FIG. 3B) was also 30 copies. […] The candidate primer-probe sets were the “Min-4” (FIG. 3C), “Min-5” (FIG. 3D), “Min-6” (FIG. 3E), “Max-10” (FIG. 3F), “E6-11” (FIG. 3G), “E6-13” (FIG. 3H), respectively.
In addition, Applicants performed sensitivity analysis to identify the most sensitive primer/probe set from among the candidate sets.
To validate the function of primer/probe sets, Applicants calculated the slope of delta Rn against cycle threshold for HPV-16 copy number detection from defined HPV copy number DNA derived from CaSki cell line.

[2] = tested on: HPV-16; assay: qPCR on 20 ng DNA from saliva samples of HPV-HNSCC patients; settings: 28 HPV-HNSCC saliva samples
Experimental: as §1
The sensitivity of detection from saliva 20 ng DNA samples is 32.1% (9/28) in E6 primer-probe sets, 42.9% (12/28) in E7 primer-probe sets, 35.7% (10/28) in “Min-5” primer-probe sets, 46.4% (13/28) in “Max-10” primer-probe sets. The sensitivity of combination of “5” and “10” is 50% (14/28) and that of E6 and E7 is 42.9% (12/28). By the standard curve analysis, the copy numbers that detected by “Max-10” primer-probe sets were the highest in these 4 primer-probe sets. The slope of standard curve is −3.5 in “Min-5” primer-probe sets when delta Rn is plotted against cycle threshold (FIG. 5).

[3] = tested on: HPV16 DNA; assay: CLIA test for HPV16, performance characteristics in plasma
Description: (§2) These primer/probe sets were adapted for development of a CLIA test for HPV16 DNA detection in plasma and salivary rinses (Table 2). Test performance was improved, so that analytical sensitivity in salivary rinse spike in assays ranges from 2.5-5.0 DNA copies/mL with 100% specificity for the three primer/probe sets that are now part of the component assay, resulting in a five-fold improvement in analytic sensitivity that is in the range of sensitivity found in sequence based liquid biopsy methods (FIG. 23, Table 2). Additionally, the assays can be used quantitatively, with measuring ranges between 2.0 log10-7.0 log10 copies/mL.

[4] = tested on: HPV16 DNA; assay: CLIA test for HPV16, performance characteristics in salivary rinse
Description: as §2

[5] = tested on: HPV DNA; assay: CLIA HPV test pilot study on saliva rinse samples from HPV-positive HNSCC patients and non-cancer controls; parameters: species or system HPV16; HPV16 DNA measured by CLIA HPV test: unit not given here
Experimental: As a final validation, Applicants a small pilot study was performed on a blinded set of saliva rinse samples from 28 patients with HPV-positive HNSCC and 15 salivary rinses from non-cancer controls. […] The sensitivity increased to 96% when all three sets were used (Table 3).

[6] = tested on: HPV-16; assay: qPCR sensitivity against HPV-HNSCC tumor samples diluted among 10 ng normal human DNA
Experimental: Quantitative real-time polymerase chain reaction (qRT-PCR) was used to examine the threshold in each experiment. qRT-PCR was performed using Quant Studio 6 Flex Real-Time PCR System (Thermo Fisher Scientific). All samples were run in triplicates. HPV-16 viral amplicon copy number estimations were developed using the CaSki cell line. After amplification of the amplicon by PCR, DNA concentration was calculated by weight NanoDrop®, then converted to DNA copy number by calculation based on the molecular weight of the double stranded amplicon. […] In the other 32 HPV-HNSCC cohort, Applicants diluted the tumor sample to 990 pg, 198 pg, 99 pg, 39.6 pg, 7.9 pg, 3.2 pg, and 1.6 pg of amount tumor weight, (correspond to 150, 30, 15, 6, 1.2, 0.6, and 0.3 cells: assumption that 1 tumor cell have 6.6 pg DNA (=3*10^9 (human DNA genome bp)*2 (diploid)*1.67*10^(−24) g (weight/Dalton))) combined with 10 ng normal leukocyte human DNA and compare the threshold of each primer-probe sets.
In this regard, Applicants investigated the other 32 HPV-HNSCC tumor samples. From the assumption that 1 cell tumor DNA contain 6.6 pg DNA, Applicants made the dilution series by DNA derived from normal lymphocyte as described and decide the threshold for each primer-probe set.
Furthermore, to determine whether these designed primer/probe sets also have a high sensitivity in a separate cohort, Applicants performed PCR in a validation cohort of 32 additional primary tumor samples with validated presence of HPV-16. Applicants prepared serial of dilutions of tumor DNA in normal lymphocyte DNA from non-cancer individuals and determined the threshold for each primer/probe set and defined amplification thresholds expressed in number of tumor cells for each sample (Table 5).

[7] = among 10 ng normal DNA, triplicate qPCR
[8] = samples tested 3 times, 10 ng DNA from healthy individual
[9] = first template ('... HPV16', word is an image)
[10] = second template (name is an image)
[11] = tumor DNA dilution, fraction of 32 samples

B1: E7: previously designed (historical) HPV-16 E7 primers and Taqman probe, SEQ ID NO: 10-12; part of CLIA test (nucleic acid)
DNA 1: CCGGACAGAGCCCATTACAA
DNA 2: CGAATGTCTACGTGTGTGCTTTG
DNA 3: CGCACAACCGAAGCGTAGAGTCACACT
modifications: Taqman probe, labels not given here
notes: part of CLIA test
sensitivity (HPV-16 copies) ([1]; HPV-16 genome among normal 10 ng DNA samples, consistent triplicate reaction): 30 copies
reaction under 10 copies of HPV-16 genome [1, 7]: reacted inconsistently
reaction under 30 copies of HPV-16 genome [1, 7]: reacted consistently triplicate; also recorded: reacted consistently in triplicates
number of reactions against 10 HPV-16 copies [1, 8]: 2 reactions
number of reactions under 30 HPV-16 copies [1, 8]: 3 reactions
sensitivity of detection from saliva 20 ng DNA samples [2]: 42.9%
Accuracy - Plasma Blind Panel, Negative % Agreement [3]: 90%
Accuracy - Plasma Blind Panel, Positive % Agreement [3]: 100%
Accuracy - Plasma Blind Panel, Total % Agreement [3]: 97%
Measuring Range - Plasma ([3]; first template ('... HPV16')): 2.0-8.5 log10 log10 copies/mL
Limit of Detection - Plasma [3, 9]: 1.5 copies/mL
Limit of Detection - Plasma [3, 10]: 13 copies/mL
Measuring Range - Plasma [3, 10]: 2.0-5.0 log10 log10 copies/mL
Measuring Range - Salivary Rinse ([4]; first template ('... HPV16')): 2.0-8.5 log10 log10 copies/mL
Limit of Detection - Salivary rinse [4, 9]: 3 copies/mL
Limit of Detection - Salivary rinse [4, 10]: 23 copies/mL
Measuring Range - Salivary Rinse [4, 10]: 2.0-6.5 log10 log10 copies/mL
sensitivity for the detection of HPV DNA in saliva rinse samples ([5]; 28 patients with HPV-positive HNSCC): 82%
HPV16 DNA measured by CLIA HPV test ([5]; saliva sample from HPV-HNSCC patient # 1): 328000
HPV16 DNA measured by CLIA HPV test ([5]; saliva sample from HPV-HNSCC patient # 2): 50000
HPV16 DNA measured by CLIA HPV test ([5]; saliva sample from HPV-HNSCC patient # 3): 48500
HPV16 DNA measured by CLIA HPV test ([5]; saliva sample from HPV-HNSCC patient # 4): 46500
HPV16 DNA measured by CLIA HPV test ([5]; saliva sample from HPV-HNSCC patient # 5): 14700
HPV16 DNA measured by CLIA HPV test ([5]; saliva sample from HPV-HNSCC patient # 6): 7320
HPV16 DNA measured by CLIA HPV test ([5]; saliva sample from HPV-HNSCC patient # 7): 4950
HPV16 DNA measured by CLIA HPV test ([5]; saliva sample from HPV-HNSCC patient # 8): 1570
HPV16 DNA measured by CLIA HPV test ([5]; saliva sample from HPV-HNSCC patient # 9): 1020
HPV16 DNA measured by CLIA HPV test ([5]; saliva sample from HPV-HNSCC patient # 10): 981
HPV16 DNA measured by CLIA HPV test ([5]; saliva sample from HPV-HNSCC patient # 11): 521
HPV16 DNA measured by CLIA HPV test ([5]; saliva sample from HPV-HNSCC patient # 12): 155
HPV16 DNA measured by CLIA HPV test ([5]; saliva sample from HPV-HNSCC patient # 13): 140
HPV16 DNA measured by CLIA HPV test ([5]; saliva sample from HPV-HNSCC patient # 14): 82.7
HPV16 DNA measured by CLIA HPV test ([5]; saliva sample from HPV-HNSCC patient # 15): 62.6
HPV16 DNA measured by CLIA HPV test ([5]; saliva sample from HPV-HNSCC patient # 16): 41.2
HPV16 DNA measured by CLIA HPV test ([5]; saliva sample from HPV-HNSCC patient # 17): 14.1
HPV16 DNA measured by CLIA HPV test ([5]; saliva sample from HPV-HNSCC patient # 18): 9.69
HPV16 DNA measured by CLIA HPV test ([5]; saliva sample from HPV-HNSCC patient # 19): 8.17
HPV16 DNA measured by CLIA HPV test ([5]; saliva sample from HPV-HNSCC patient # 20): 6.5
HPV16 DNA measured by CLIA HPV test ([5]; saliva sample from HPV-HNSCC patient # 21): 4.02
HPV16 DNA measured by CLIA HPV test ([5]; saliva sample from HPV-HNSCC patient # 22): 2.52
HPV16 DNA measured by CLIA HPV test ([5]; saliva sample from HPV-HNSCC patient # 23): 0.986
sensitivity under 100 cells ([6]; 32 HPV-HNSCC tumor samples): 96.9%
sensitivity under single cells ([6]; 32 HPV-HNSCC tumor samples, 6.6 pg DNA): 9.4%
sensitivity under 10 cells ([6]; 32 HPV-HNSCC tumor samples, 66 pg DNA): 68.8%
Threshold of tumor cell numbers for HPV-16 detection ([6]; Sample # 1): 60.0 tumor cells
Threshold of tumor cell numbers for HPV-16 detection ([6]; Sample # 2): 30.0 tumor cells
Threshold of tumor cell numbers for HPV-16 detection ([6]; Sample # 3): 30.0 tumor cells
Threshold of tumor cell numbers for HPV-16 detection ([6]; Sample # 4): 150.0 tumor cells
Threshold of tumor cell numbers for HPV-16 detection ([6]; Sample # 5): 6.0 tumor cells
Threshold of tumor cell numbers for HPV-16 detection ([6]; Sample # 6): 6.0 tumor cells
Threshold of tumor cell numbers for HPV-16 detection ([6]; Sample # 7): 30.0 tumor cells
Threshold of tumor cell numbers for HPV-16 detection ([6]; Sample # 8): 15.0 tumor cells
Threshold of tumor cell numbers for HPV-16 detection ([6]; Sample # 9): 30.0 tumor cells
Threshold of tumor cell numbers for HPV-16 detection ([6]; Sample # 10): 6.0 tumor cells
Threshold of tumor cell numbers for HPV-16 detection ([6]; Sample # 11): 6.0 tumor cells
Threshold of tumor cell numbers for HPV-16 detection ([6]; Sample # 12): 30.0 tumor cells
Threshold of tumor cell numbers for HPV-16 detection ([6]; Sample # 13): 6.0 tumor cells
Threshold of tumor cell numbers for HPV-16 detection ([6]; Sample # 14): 6.0 tumor cells
Threshold of tumor cell numbers for HPV-16 detection ([6]; Sample # 15): 6.0 tumor cells
Threshold of tumor cell numbers for HPV-16 detection ([6]; Sample # 16): 6.0 tumor cells
Threshold of tumor cell numbers for HPV-16 detection ([6]; Sample # 17): 1.2 tumor cells
Threshold of tumor cell numbers for HPV-16 detection ([6]; Sample # 18): 6.0 tumor cells
Threshold of tumor cell numbers for HPV-16 detection ([6]; Sample # 19): 1.2 tumor cells
Threshold of tumor cell numbers for HPV-16 detection ([6]; Sample # 20): 1.2 tumor cells
Threshold of tumor cell numbers for HPV-16 detection ([6]; Sample # 21): 1.2 tumor cells
Threshold of tumor cell numbers for HPV-16 detection ([6]; Sample # 22): 1.2 tumor cells
Threshold of tumor cell numbers for HPV-16 detection ([6]; Sample # 23): 1.2 tumor cells
Threshold of tumor cell numbers for HPV-16 detection ([6]; Sample # 24): 1.2 tumor cells
Threshold of tumor cell numbers for HPV-16 detection ([6]; Sample # 25): 0.3 tumor cells
Threshold of tumor cell numbers for HPV-16 detection ([6]; Sample # 26): 0.3 tumor cells
Threshold of tumor cell numbers for HPV-16 detection ([6]; Sample # 27): 1.0 tumor cells
Threshold of tumor cell numbers for HPV-16 detection ([6]; Sample # 28): 1.0 tumor cells
Threshold of tumor cell numbers for HPV-16 detection ([6]; Sample # 29): 3.0 tumor cells
Threshold of tumor cell numbers for HPV-16 detection ([6]; Sample # 30): 15.0 tumor cells
Threshold of tumor cell numbers for HPV-16 detection ([6]; Sample # 31): 0.6 tumor cells
Threshold of tumor cell numbers for HPV-16 detection ([6]; Sample # 32): 15.0 tumor cells
Sensitivity, 1 cell [6, 11]: 0.094
Sensitivity, 3 cells [6, 11]: 0.375
Sensitivity, 10 cells [6, 11]: 0.688
Sensitivity, 30 cells [6, 11]: 0.938*
Sensitivity, 100 cells [6, 11]: 0.969*
